Test results as given in publication PMC10866687 (2024).

B1: cortactin-GFP (wild type), in 293T cells [not stated] / FLAG-MAP1B-LC1 (wild type) [not stated (human or rat cDNA cloned)] (parent complex)
chain 1: not shown
chain 2: DRSPSPRHPDVSMVDPEALAIEQNLGKALKKDLKEKTKTKKPGTKTKSSSPVKKSDGKSKPLAASPKPAGLKESSDKVSRVASPKKKESVEKAAKPTTTPEVKAARGEEKDKETKNAANASASKSAKTATAGPGTTKTTKSSAVPPGLPVYLDLCYIPNHSNSKNVDVEFFKRVRSSYYVVSGNDPAAEEPSRAVLDALLEGKAQWGSNMQVTLIPTHDSEVMREWYQETHEKQQDLNIMVLASSSTVVMQDESFPACKIEL

Variants of: B1
Assay: coimmunoprecipitation (IP FLAG, immunoblot quantification); n = 4 experiments; parent: 100; read off a plot

Variant | percent of parent
chain 2 K95A, chain 2 P96A | ~110 % of WT
chain 2 P145A, chain 2 P146A | ~36 % of WT
chain 2 P66A, chain 2 K67A, chain 2 P68A | ~93 % of WT
chain 2 K41A, chain 2 P42A | ~76 % of WT
chain 2 P6A, chain 2 R7A | ~78 % of WT
chain 2 K60A, chain 2 P61A | ~120 % of WT
